Data taken from article PMC4838861.

How the values were obtained:
[1] = biological target: yeast V-ATPase c subunit ring (c8c’c”) (S. cerevisiae) (UniProt P25515); experiment: negative-stain EM with single-particle class averaging; c-ring (1.5 mg/ml) mixed with DOPC, detergent removed with BioBeads for 7 days (incomplete); 4337 images of dumbbell-shaped particles outside the bilayers sorted into 16 classes (EMAN1.9)
[2] = biological target: yeast V-ATPase c subunit ring (c8c’c”) (S. cerevisiae) (UniProt P25515); experiment: SEC + other: negative-stain EM; purified c-ring (1 mg) on Superdex 200 in buffer with 0.1% DDM (also in UnDM or DM); peak fractions 48 and 58 viewed by negative-stain EM

stoichiometry N [1]: 2
stoichiometry N [2]: 2
Substance: yeast V-ATPase c subunit ring (c8c’c”) (from UniProt P25515 1-160; P32842 1-164; P23968 1-213) (complex)
